Experimental data taken from the RNAGym collection of RNA variant scans (doi:10.7554/elife.90254).

B1: LINE1-full (parent)
chain: UACGUAGGUGGUUUUCCCCUGAUAGUGCUAAGGGGGCCUGGAAGUUUGGACUGGGCAGAGCUCAACACAGCGUGGCAAAGUGGCUGUGGCUAGACUGCCUCUCUGGAUUCCUCGUCACUCAGCAGGGCAUCUCUGAGAGAAAUGCC

Variants of: B1
Test: self-cleavage, relative activity (ratio to wild type); higher = more cleavage; in vitro, sequencing; the parent is a self-cleaving ribozyme

Variant | self-cleavage
UACGUAGGUGGUUUUCCCCUGAUAGUGCAAAGGGGGCCUGGAAGUUUGGACUGGGCAGAGCUCAACACAGCGUGGCAAAGUGGCUGUGGCUAGACUGCCUCUCUGGAUUCCUCGUCACUCAGCAGGGCAUCUUUGAGAGAAAUGCC [U29A C133U] | 0.85
UACGUAGGUGGGUAUCCCCUGAUAGUGCUAAGGGGGCCUGGAAGUUUGGACUGGGCAGAGCUCAACACAGCGUGGCAAAGUGGCUGUGGCUAGACUGCCUCUCUGGAUUCCUCGUCACUCAGCAGGGCAUCUCUGAGAGAAAUGCC [U12G U14A] | 0.44
UACGUAGGUGGUUUUCCCCUGAUAGUGCUAAGGGGGCCUGGAAGCUUGGACUGGGCAGAGCUCAACACAGCGUGGCAAAGUGGCUGUGGCUAGACUGCCUCUCUGGAUUCCUCGUCACUCAGCACGGCAUCUCUGAGAGAAAUGCC [U45C G125C] | 1.13
UACGUAGGUGGUUUUCCCCUGAUAGUGCUAAGGGGGCCUGGAAGUUUGGACCUGGCAGAGCUCAACACAGCGUGGCAAAGUGGCUGUGGCUAGACUGCCUCUCUGGAUUCCUCGUCACUCAGCAGGGCAUCUCUGAGAGAAAUGCC [U52C G53U] | 1.6
UACGUAGGAGGUUUUCCCCUGAUAGUGCUAAGGGGGCCUGGAAGUUUGGACUGGGCAGAGCUCAACACAGCGUGGCAAAGUGGCUGUGGCUAGACUGCCUCUCUGGAUUCCUCGUCACUCAGCAGGGCAUCUCUGUGAGAAAUGCC [U9A A136U] | 0.81
UACGUAGGUGGUUUUCCCCUGAUAGUGCUAAGGGGGACUGGAAGUUUGGACUGGGCAGAGCUCAACACAGCGUGGCAAAGUGGCUGUGGCUAGUCUGCCUCUCUGGAUUCCUCGUCACUCAGCAGGGCAUCUCUGAGAGAAAUGCC [C37A A94U] | 0.23
UACGUAGGUGGUUUUCCCCUGAUAGUGCUAAGGGGGCCUGGAAGUCUGGACUGGGCAGAGCUCAACACAGCGUGGCAAAGUGGCUGUGGCUAGACUGCCUCUCUGGAUUCCUCGUCACUCAACAGGGCAUCUCUGAGAGAAAUGCC [U46C G122A] | 1.6
UACGUAGGUGGUAUUCCCCUGAUAGUGCUAAGGGGGCCUGGAAGUUUGGACUGGGCGGAGCUCAACACAGCGUGGCAAAGUGGCUGUGGCUAGACUGCCUCUCUGGAUUCCUCGUCACUCAGCAGGGCAUCUCUGAGAGAAAUGCC [U13A A57G] | 0.51
UACGUAGGUGGUUUUCCCCUGAUAGUGCUAAGGGGGCCUGGAAGCUUGGACUGGGCAGAGCUCAACACAGCGUGGCAAAGUGGCUGAGGCUAGACUGCCUCUCUGGAUUCCUCGUCACUCAGCAGGGCAUCUCUGAGAGAAAUGCC [U45C U87A] | 0.09
UACGUAGGUGGUUUUCCCCUGAUAGUGCUAAGGGGGCCUGGAAGUUUGGACUGGGCAGAGCGUAACACAGCGUGGCAAAGUGGCUGUGGCUAGACUGCCUCUCUGGAUUCCUCGUCACUCAGCAGGGCAUCUCUGAGAGAAAUGCC [U62G C63U] | 0.07
UACGUAGGUGGUUUUCCCCUGAUAGUGCUAAGGGGGCCUGGAAGUUUGGACUGGGCUGAGCUCAACACAGCGUGGCAAAGUGGCUGUGGCUAGACUGCCUCUCUGGAUUCCUCGUCACUCAGCAGGGCAACUCUGAGAGAAAUGCC [A57U U130A] | 0.15
UACGUAGGUGGUUUUCCCCUGAUAGUGCUAAUGGGGCCUGGAAGUUUGGACUGGGCAGAGCUCAACACAGCGUGGCAAAGUGGCUGUGGCUAGACUGCCUCUCUGGAUUCCUCGUCACACAGCAGGGCAUCUCUGAGAGAAAUGCC [G32U U119A] | 0
UACGUAGGUGGUUUUCCCCUGAUAGUGCAAAGGGGGCCUGGAAGUUUGGACUGGGCAGAGCUCAACACAGCGUGGCAAAGUGGCUGUGGCUAGACUGCCUCUCUGGAUUCCUCGCCACUCAGCAGGGCAUCUCUGAGAGAAAUGCC [U29A U115C] | 1.98
UACGUAGGUGGUUUUCCCCUGAUAGUGCUAAGGGGGCCUGGAAGUUUGGACUGGGCAGAGCUCAACUCGGCGUGGCAAAGUGGCUGUGGCUAGACUGCCUCUCUGGAUUCCUCGUCACUCAGCAGGGCAUCUCUGAGAGAAAUGCC [A67U A69G] | 0.03
UACGCAGGUGGUUUUCCCCCGAUAGUGCUAAGGGGGCCUGGAAGUUUGGACUGGGCAGAGCUCAACACAGCGUGGCAAAGUGGCUGUGGCUAGACUGCCUCUCUGGAUUCCUCGUCACUCAGCAGGGCAUCUCUGAGAGAAAUGCC [U5C U20C] | 1.09
UACGUAGGUGGUUUUCCCCUGAUAGUGCUAACGGGGCCUGGAAGUUUGGACUGGGCAGUGCUCAACACAGCGUGGCAAAGUGGCUGUGGCUAGACUGCCUCUCUGGAUUCCUCGUCACUCAGCAGGGCAUCUCUGAGAGAAAUGCC [G32C A59U] | 0.78
UACGUAGGUGGUUUUCCCCUAAUAGUGCUAAGGGGGCCUGGAAGUUUGGACUGGGCAGAGCUCAACACAGCGUGGCAAAGUGGCCGUGGCUAGACUGCCUCUCUGGAUUCCUCGUCACUCAGCAGGGCAUCUCUGAGAGAAAUGCC [G21A U85C] | 0.18
UACGUAGGUGGUUUUCCCCUGAUAGUGCUAAGGGGGCCUGGAAGUUCGGACUGGGCAGAGCUCAACACAGCGUGGCAAAGUGGCUGUGGCUAGACUGCCUCUCUGGAUUCCUCGUCACUCAGCAGGGCAUCUCUGGGAGAAAUGCC [U47C A136G] | 0.99
UACGUAGGUGGUUUUCCCCUGAUAGUGCUAAGGGGGCCUGGAAGUUUGGAGUGGGCAGAGCCCAACACAGCGUGGCAAAGUGGCUGUGGCUAGACUGCCUCUCUGGAUUCCUCGUCACUCAGCAGGGCAUCUCUGAGAGAAAUGCC [C51G U62C] | 0.08
UACGUAGGUGGUUUUCCCCUGAUAGCGCUAAGGGGGCCUGGAAGUUUGGACUGGGCAGAGCUCAACACAGCGUGGCAAAGUGGCUGUGGCUAGAUUGCCUCUCUGGAUUCCUCGUCACUCAGCAGGGCAUCUCUGAGAGAAAUGCC [U26C C95U] | 0.24
